Legend:
[1] = test system: type 1 diabetes mellitus (T1DM); assay: ISLE-1 26-week Phase 2b randomized double-blind trial: A1c; type: in vivo, human; conditions: ITT, 26 weeks
Description: ISLE-1 was a 26-week, Phase 2b, multicenter, randomized, double-blind, non-inferiority trial.
(§1) ISLE-1 was a 26-week, Phase 2b, multicenter, randomized, double-blind, trial in T1DM treated with multiple daily injections (MDI) of insulin.
Main exclusion criteria were total insulin dose ≥1.5 IU/kg/day or NPH insulin as basal.
Prandial dosing of HDV-lispro or control lispro was 15 minutes prior to the meal, and basal insulins were administered either as a single daily dose or a divided twice per day dosing, every 12 hours.
(§2) Informed of ˜10% dilution, participants continued their current insulin parameters. Hypoglycemia was recorded on Case Report Forms (CRFs) based on subject diaries and SMBG records, subjectively investigator-judged as “mild,” “moderate,” “severe,” or “life threatening.” Blinded continuous glucose monitoring (CGM) (Dexcom G4) was used for 5-7 days to assess glucose at baseline, weeks 13 and 26. A1c, lipids, and liver enzymes were measured approximately monthly. Liver fat content MRIs were performed in a subset.
The intent to treat (ITT) population included all randomized subjects receiving at least one dose of study treatment. Safety analyses included all randomized subjects. […] Mean A1c change was analyzed using ANCOVA within intent-to-treat (ITT) cohort at each visit. […]

[2] = test system: type 1 diabetes mellitus (T1DM); assay: ISLE-1: hypoglycemia (CRF-reported and blinded CGM)
Description: as §1, §2
The intent to treat (ITT) population included all randomized subjects receiving at least one dose of study treatment. Safety analyses included all randomized subjects. […] Mean A1c change was analyzed using ANCOVA within intent-to-treat (ITT) cohort at each visit. […] Poisson regression models adjusting for site as random effect compared “severe” hypoglycemia incidence rates within A1c groups, testing for baseline A1c by treatment group interaction. Event number/subject was truncated at 15, accounting for extreme outliers.

[3] = test system: type 1 diabetes mellitus (T1DM); assay: ISLE-1: lipids, liver enzymes, liver fat MRI, adverse events; type: in vivo, human; conditions: over study
Description: as §1, §2
The intent to treat (ITT) population included all randomized subjects receiving at least one dose of study treatment. Safety analyses included all randomized subjects. […] Mean A1c change was analyzed using ANCOVA within intent-to-treat (ITT) cohort at each visit. […] Direct likelihood models were used for treatment arm A1c comparisons, % time <54 mg/dL, bolus insulin, and basal insulin within the two A1c subgroups. Poisson regression models adjusting for site as random effect compared “severe” hypoglycemia incidence rates within A1c groups, testing for baseline A1c by treatment group interaction. Event number/subject was truncated at 15, accounting for extreme outliers.

[4] = test system: type 1 diabetes mellitus (T1DM); assay: Continuous glucose monitoring results, Good to Great Hypoglycemia study (Table 1); type: in vivo, human
Description: A1c, lipids, and liver enzymes were measured approximately monthly. Liver fat content MRIs were performed in a subset.
Safety analyses included all randomized subjects.
Table 1 summarizes continuous glucose monitoring results in the Good to Great Hypoglycemia study, in terms of increased HDV-related hypoglycemia events.

type 1 diabetes (T1D) = assay: Example 3, 6-month open label study: insulin dosing, A1C, mean daily glucose, weight; type: in vivo, human; conditions: 61 enrollees, mean baseline A1C 7.3
Description: Subcutaneous (SC) insulin is non-physiologic, since pancreatic insulin goes first to the liver. The present study was designed to determine whether delivery of Hepatic Directed Vesicles (HDV) admixed with lispro/HUMALOG® (HDV-L) decreases hypoglycemia in well controlled patients on multiple daily injections (MDI) with type 1 diabetes (T1D) using unblinded Dexcom G6 continuous glucose monitoring (CGM).
This study was a 6-month (mo) open label study of prandial insulin (lispro, 3 mo, then HDV-L, 3 mo) with basal insulin degludec (TRESIBA®) and unblinded continuous glucose monitoring (CGM) in T1D with baseline A1C 6.5-8.5%. Insulin dosing, hypoglycemia, and daily glucose control were among the monitored parameters.
In this study the target fasting blood glucose was 80-100 mg/dL. At 3 mo subjects were randomized to −10% or −40% basal dose to encourage titration with HDV-L. Physicians titrated basal insulin weekly. A hypoglycemic event was defined as ≥15 min of CGM≤54 mg/dL.

insulin lispro
Mean change in A1c baseline to Week 26 [1]: −0.16%
CRF-reported incidence of "severe" hypoglycemia ([2]; baseline A1c<8.5%): 21 events/100 person-years
time <54 mg/dL during Week 26 (median) ([2]; baseline A1c<8.5%, CGM): 0.6%
CRF-reported incidence rate of "severe" hypoglycemia ([2]; baseline A1c≥8.5%): 97 events/100 person-years
percentage time <54 mg/dL during Week 26 (median) ([2]; baseline A1c≥8.5%, CGM): 2.6%
change in total cholesterol [3]: 7.3 mg/dL
% Time <54 mg/dL, median ([4]; Baseline): 2.1%
% Time <70 mg/dL, median ([4]; Baseline): 5.8%
Area above curve <54 mg/dL, median ([4]; Baseline): 0.1
Area above curve <70 mg/dL, median ([4]; Baseline): 0.9
% Time <54 mg/dL, median ([4]; Endpoint): 1.7%
% Time <70 mg/dL, median ([4]; Endpoint): 5.6%
Area above curve <54 mg/dL, median ([4]; Endpoint): 0.1
Area above curve <70 mg/dL, median ([4]; Endpoint): 0.7
A1C after 3 mo optimization (type 1 diabetes (T1D)): 6.9%
